We go through two molecules from doi:10.1101/2022.05.04.490663 (bioRxiv, 2022).

Usually Kd stands for a measure of binding affinity in units of concentration. High values mean a looser complex, low ones a tighter complex.

The target in test [1] is T1, 10xHis-mRuby2-Spt6 (239-1451) (S. cerevisiae, UniProt P23615 239-1451).
T1 sequence (looked up): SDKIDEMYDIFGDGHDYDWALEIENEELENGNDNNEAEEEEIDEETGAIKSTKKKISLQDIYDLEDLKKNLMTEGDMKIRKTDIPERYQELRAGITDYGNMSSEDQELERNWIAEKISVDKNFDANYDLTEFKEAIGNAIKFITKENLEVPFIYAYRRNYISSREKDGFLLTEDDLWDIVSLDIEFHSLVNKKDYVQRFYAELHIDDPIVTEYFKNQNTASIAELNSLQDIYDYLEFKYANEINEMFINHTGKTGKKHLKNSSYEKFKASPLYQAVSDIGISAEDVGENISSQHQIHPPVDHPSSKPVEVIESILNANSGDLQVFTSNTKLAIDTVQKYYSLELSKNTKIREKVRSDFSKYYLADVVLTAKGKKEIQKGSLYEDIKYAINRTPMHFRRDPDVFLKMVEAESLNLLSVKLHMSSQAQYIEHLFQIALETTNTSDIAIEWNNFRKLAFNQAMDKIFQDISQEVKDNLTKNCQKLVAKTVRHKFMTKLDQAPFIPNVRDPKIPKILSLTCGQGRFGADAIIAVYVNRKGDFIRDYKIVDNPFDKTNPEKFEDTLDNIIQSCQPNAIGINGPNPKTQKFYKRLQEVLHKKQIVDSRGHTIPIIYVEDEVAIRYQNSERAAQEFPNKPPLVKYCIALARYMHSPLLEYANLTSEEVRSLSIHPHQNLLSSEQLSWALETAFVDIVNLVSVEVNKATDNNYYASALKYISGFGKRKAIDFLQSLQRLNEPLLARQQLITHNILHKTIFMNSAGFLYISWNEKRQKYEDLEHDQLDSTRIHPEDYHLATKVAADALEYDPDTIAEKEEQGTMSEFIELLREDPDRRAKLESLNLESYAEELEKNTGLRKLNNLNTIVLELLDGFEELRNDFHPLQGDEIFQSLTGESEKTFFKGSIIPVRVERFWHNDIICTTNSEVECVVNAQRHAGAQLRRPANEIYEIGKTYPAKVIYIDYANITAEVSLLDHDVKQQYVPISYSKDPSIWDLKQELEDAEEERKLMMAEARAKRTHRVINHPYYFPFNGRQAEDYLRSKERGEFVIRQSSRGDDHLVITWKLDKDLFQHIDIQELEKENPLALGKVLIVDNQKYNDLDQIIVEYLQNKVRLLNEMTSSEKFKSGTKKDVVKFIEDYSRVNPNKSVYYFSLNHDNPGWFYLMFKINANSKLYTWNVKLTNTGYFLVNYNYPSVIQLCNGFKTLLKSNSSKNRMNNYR
Briefly: native gel or EMSA. On the technique in general: In EMSA bound probe runs differently from free probe, usually more slowly.

Test [2] has as its target T2, Spt6 (239-1451), untagged (S. cerevisiae, UniProt P23615 239-1451).
T2 sequence (looked up): T1 sequence (looked up)
The test is described as follows: fluorescence polarisation. For orientation: Polarisation of emitted light reports the rotation of a fluorescent probe.

Residue numbers refer to the chain shown, from its start. Names may count otherwise.

B1: 10xHis-mClover-Cdc73 (full-length Cdc73) (natural protein, S. cerevisiae, UniProt Q06697 1-393, looked up)
chain: MANSLDRLREHLKNGDKLVLKNNEGQSTDDITKATMVETLSSDGSTQDSFPLNEETEIEIDGSLVQLRIIVHCWMNKDSSAADYLADCQNKQLTNVSFLQRTDLINWLSGNTESSQYLKAPGQKGETSDKVDIENKTLAGELSTVKSTTSASLENDSEVSDPVVVETMKHERILVDHNSALRGAKPINFGYLIKDAELKLVQSIKGSLRGSKLPPGHKGAHGRISKTNGSSGGPRKDPIILIPSAASSILTVANIKQFLLESKYVNPRNLPSVPNGLVNIEKNFERISRPIRFIIVDNTRMFTKPEYWDRVVAIFTTGHTWQFNNYQWNSPQELFQRCKGYYFHFAGDSVPQHVQQWNVEKVELDKNKRFKDVEVVRYFWHSLEKELISRGYR
Take B1: the dissociation constant Kd in test [1] is about 320 nM; in test [2] it was 770 nM.

B2: 10xHis-mClover-Cdc73 with the W321A substitution (natural protein, S. cerevisiae, UniProt Q06697 1-393, looked up)
chain: B1 chain with W321A
As to B2, the binding result in test [1] is on record as “binds”.
